Results published in publication PMC4118869 (PLoS ONE, 2014).

Tests used:
[1] = target: hemagglutinin of A/Brisbane/10/2007 (H3N2), in the influenza virus antigen standard (Influenza A virus A/Brisbane/10/2007 …, UniProt A8W8K8, strain); test: ELISA; settings: one partner purified
[2] = target: hemagglutinin of A/California/07/2009 (H1N1)pdm09, in the influenza virus antigen standard (Influenza A virus A/California/07/2009 …, UniProt C3W5X2, strain); test: ELISA; settings: one partner purified
[3] = target: phage displayed HA gene fragment D363-G478 (Influenza A virus A/California/07/2009 …, UniProt C3W5X2); test: ELISA; settings: both partners purified
[4] = target: phage displayed HA gene fragment P66-I282 (Influenza A virus A/California/07/2009 …, UniProt C3W5X2); test: ELISA; settings: both partners purified
[5] = target: phage displayed HA gene fragment L193-K225 (Influenza A virus A/California/07/2009 …, UniProt C3W5X2); test: ELISA; settings: both partners purified
[6] = target: recombinant H5-HA, A/Vietnam/1203/2004 (H5N1) (Influenza A virus A/Vietnam/1203/2004 …, UniProt Q5EP31, strain); test: SPR; settings: both partners purified
[7] = target: recombinant H1-HA (D18-I530), A/California/06/2009 (H1N1)pdm09 (Influenza A virus A/California/06/2009 …, UniProt C3W5S1, strain); test: SPR; settings: both partners purified
[8] = target: recombinant H9-HA, A/HongKong/1073/99 (H9N2) (Influenza A virus A/Hong Kong/1073/99 …, UniProt Q9ICY5, strain); test: SPR; settings: both partners purified
[9] = target: T1, recombinant H2-HA, A/Japan/305/57 (H2N2) (Influenza A virus A/Japan/305/1957 …, UniProt P03451, strain); test: SPR; settings: both partners purified
T1 construct: source: bought: E-Enzymes (Protein Sciences in the SPR methods)

[10] = target: T2, recombinant H7-HA, A/Netherlands/219/2003 (H7N7) (Influenza A virus …, UniProt Q6VMK1); test: SPR; data not shown: sdAbs on immobilised recombinant H3-HA and H7-HA; settings: both partners purified
T2 construct: source: bought: Protein Sciences

[11] = target: T3, recombinant H3-HA, A/Brisbane/10/2007 (H3N2) (Influenza A virus A/Brisbane/10/2007 …, UniProt A8W8K8, strain); test: as above; settings: both partners purified
T3 construct: source: bought: Protein Sciences

[12] = target: recombinant HA1 domain (D18-R344), A/California/06/2009 (H1N1)pdm09 (Influenza A virus A/California/06/2009 …, UniProt C3W5S1, strain); test: SPR; settings: both partners purified

B1: R1a-F5 (VHH)
VHH: QLQLVESGGGLVQVGGSLRLSCAASGFPFDGYAIAWFRQAPGKEREGVSCRASDGNTYYAESLKGRLTMSTDNAKNTVYLQMNSLKPEDTAVYYCAAASWVASLWSPSEYDYWGQGTQVTVSS
notes: source: E. coli WK6 periplasm, purified (Talon IMAC, Superdex 75 SEC)
binding result [1]: no binding
binding result [2]: binds
binding result [3]: no binding
binding result [4]: binds
binding result [5]: no binding
binding result [6]: no binding
Kd [7]: 10 nM
koff [7]: 0.000414 s⁻¹
kon [7]: 40200 M⁻¹ s⁻¹
binding result [8]: no binding
binding result [9]: no binding
binding result [10]: no binding
binding result [11]: no binding
Kd [12]: 6.06 nM

B2: R2a-G9 (VHH)
VHH: QVQLVESGGGLVQPGGSLRLSCAASDNIFSFYTMGWYRQSPGKERELVAVIGNGGNTNYADSVKGRFTISRDNGKNKAHLQMNSLKPEDTAVYYCKASGPGGVEVWGQGTQVTVSS
notes: as for B1
binding result [1]: no binding
binding result [2]: binds
binding result [4]: binds
binding result [5]: no binding
binding result [6]: no binding
Kd [7]: 22.1 nM
koff [7]: 0.00392 s⁻¹
kon [7]: 177000 M⁻¹ s⁻¹
binding result [8]: no binding
binding result [9]: no binding
binding result [10]: no binding
binding result [11]: no binding
Kd [12]: 68.7 nM

B3: R2a-E8 (VHH)
VHH: QLQLVESGGGLVQPGGSLRLSCTASGDIFVMYMIDWYRQAPGKQRELVASIDGRGTPMYADSVKGRFTISRDNAKNTVYLQMNSLKPEDTAVYSCHAKSPLVDNEYWGQGTQVTVSS
notes: as for B1
binding result [1]: no binding
binding result [2]: binds
binding result [3]: no binding
binding result [4]: no binding
binding result [5]: no binding
binding result [6]: no binding
Kd [7]: 0.79 nM
koff [7]: 0.000148 s⁻¹
kon [7]: 187000 M⁻¹ s⁻¹
binding result [8]: no binding
binding result [9]: no binding
binding result [10]: no binding
binding result [11]: no binding

B4: R1a-E6 (VHH)
VHH: QVQLVESGGGLVQPGGSLRLSCAASGFTLGAYAIAWFRQAPGKEREGVSCISPSDSFTEYGDSVKGRFTVSRDNAKNTVYLQMNSLQPEDTAVYYCAADPVCTAGWYRPSRFDLWGQGTQVTVSS
notes: as for B1
binding result [1]: no binding
binding result [2]: binds
binding result [3]: no binding
binding result [4]: binds
binding result [5]: no binding
binding result [6]: no binding
Kd [7]: 9.97 nM
koff [7]: 0.000151 s⁻¹
kon [7]: 15100 M⁻¹ s⁻¹
binding result [8]: no binding
binding result [9]: no binding
binding result [10]: no binding
binding result [11]: no binding
Kd [12]: 36 nM

B5: R1a-G6 (VHH)
VHH: QVQLVESGGGLVQSGGSLRLSCAASGSMSRIITMGWYRQAPGMERELVAVIGNNDNTVYGDSVQGRFTVSRDNAKNTAYLQMNSLNAEDTAMYYCKISTLTPPHEYWGQGTQVTVSS
notes: as for B1
binding result [1]: no binding
binding result [2]: binds
binding result [3]: no binding
binding result [4]: binds
binding result [5]: no binding
binding result [6]: no binding
Kd [7]: 4.83 nM
koff [7]: 0.000355 s⁻¹
kon [7]: 73800 M⁻¹ s⁻¹
binding result [8]: no binding
binding result [9]: no binding
binding result [10]: no binding
binding result [11]: no binding
Kd [12]: 4.62 nM

B6: R2a-F9 (VHH)
VHH: QVQLVESGGGLVQPGGSLRLSCSASGSISSIVTMGWYRQAPGKERELVAVIGNYGNTNYADSVKGRFTVSRDNAKNTVYLQMNSLNVEDTAMYVCKFSSTVAPHEYWGQGTQVTVSS
notes: as for B1
binding result [1]: no binding
binding result [2]: binds
binding result [3]: no binding
binding result [4]: binds
binding result [5]: no binding
binding result [6]: no binding
Kd [7]: 78.8 nM
koff [7]: 0.065 s⁻¹
kon [7]: 825000 M⁻¹ s⁻¹
binding result [8]: no binding
binding result [9]: no binding
binding result [10]: no binding
binding result [11]: no binding
Kd [12]: 78.8 nM

B7: R1a-E5 (VHH)
VHH: QLQLVESGGGLVQPGGSLRLSCTASGFSLDNYAIGWFRRAPGEEREGVSFITSTSAVTKYADSVKGRFTISRDNAKNTVYLQMTSLKPEDTAVYYCAGTRWVPTMKADEYNYWGQGTQVTVSS
notes: as for B1
binding result [1]: no binding
binding result [2]: binds
binding result [3]: no binding
binding result [4]: no binding
binding result [5]: no binding
binding result [6]: no binding
Kd [7]: 0.79 nM
koff [7]: 7.61e-05 s⁻¹
kon [7]: 97600 M⁻¹ s⁻¹
binding result [8]: no binding
binding result [9]: no binding
binding result [10]: no binding
binding result [11]: no binding

B8: R1a-G5 (VHH)
VHH: QLQLVESGGGLVQPGGSLRLSCAASGSISRIVTMGWYRQASGKERELVAVIGNYGNTNYADSVKGRFTVSRDNAKDTAYLQMNGLNVEDTAIYYCKTSTTTPPYEYWGQGTQVTVSS
notes: as for B1
binding result [1]: no binding
binding result [2]: binds
binding result [3]: no binding
binding result [4]: binds
binding result [5]: no binding
binding result [6]: no binding
Kd [7]: 5.85 nM
koff [7]: 0.00504 s⁻¹
kon [7]: 862000 M⁻¹ s⁻¹
binding result [8]: no binding
binding result [9]: no binding
binding result [10]: no binding
binding result [11]: no binding
Kd [12]: 15.6 nM

B9: R1a-F4 (VHH)
VHH: QVQLVESGGGLVQPGGSLRLSCAASGSISRIVTMGWYRQGPGKERELVAVIGNYGNTNYADSVKGRFTVSRDNAKDTAYLQMNNLNVEDTAMYYCKCSTTTPPHEFWGQGTQVTVSS
notes: as for B1
binding result [1]: no binding
binding result [2]: binds
binding result [3]: no binding
binding result [4]: binds
binding result [5]: no binding
binding result [6]: no binding
Kd [7]: 6.46 nM
koff [7]: 0.0022 s⁻¹
kon [7]: 340000 M⁻¹ s⁻¹
binding result [8]: no binding
binding result [9]: no binding
binding result [10]: no binding
binding result [11]: no binding
Kd [12]: 4.74 nM

B10: R2a-H9 (VHH)
VHH: QVQLVESGGGLVQPGGSLRLSCAASTNIASFYTMGWYRQTPGQQRDVVAVIGNGGNTNYADSVKGRFTISRDGAKNTAHLQMNSLKPEDTDVYYCKASGPGGVILWGQGTQVTVSS
notes: as for B1
binding result [1]: no binding
binding result [2]: binds
binding result [4]: binds
binding result [5]: no binding
binding result [6]: no binding
Kd [7]: 2.77 nM
koff [7]: 0.000384 s⁻¹
kon [7]: 139000 M⁻¹ s⁻¹
binding result [8]: no binding
binding result [9]: no binding
binding result [10]: no binding
binding result [11]: no binding
Kd [12]: 468 nM

B11: R2a-B9 (VHH)
VHH: QVQLVESGGGLVQPGGSLRLSCAASGSAFSINAMGWYRQAPGEEREFVAAITAGGNTYYADSAKARFTISRDNAKNMLYLQMNSLKPEDTAMYYCAATKAFGIATITADYELWGQGTQVTVSS
notes: as for B1
binding result [1]: no binding
binding result [2]: binds
binding result [3]: no binding
binding result [4]: no binding
binding result [5]: no binding
binding result [6]: no binding
Kd [7]: 0.16 nM
koff [7]: 4.94e-05 s⁻¹
kon [7]: 312000 M⁻¹ s⁻¹
binding result [8]: no binding
binding result [9]: no binding
binding result [10]: no binding
binding result [11]: no binding

B12: R1a-C5 (VHH)
VHH: QVQLVESGGGLVQPGGSLRLSCAASNDIFSFYTMGWYLQAIGKQREPVAVIGNGGNTNYAESVKGRFTISRDGAKNTAYLQMNSLKPEDTAVYYCMASGPGGLNVWGQGTQVTVSS
notes: as for B1
binding result [1]: no binding
binding result [2]: binds
binding result [4]: binds
binding result [5]: binds
Kd [7]: 37.6 nM
koff [7]: 0.0206 s⁻¹
kon [7]: 548000 M⁻¹ s⁻¹
binding result [10]: no binding
binding result [11]: no binding
Kd [12]: 38.4 nM
